Tests used:
[1] = tested on: Human glioma stem cells (hGIC); assay: Cytotoxicity assay of B2E5-ADC against glioma (MTT); type: cell-based
Description: Human glioma stem cells (hGIC) were inoculated in a 96-well plate in an amount of 1000 cells per well. […] Then, 5 μl of MTT (5 mg/ml, Wako Pure Chemical) was added to each well, followed by culturing for 2 hours in a CO2 incubator at 37° C. After the culture liquid was discarded, 90 μl of DMSO was added, and after the cells were dissolved, the absorbance (570 nm) was measured by using a benchmark (Bio-Rad).
Note that as a positive control (100%), a measured value in a well in the absence of the antibody was used. In addition, as a negative control (0%), a measured value obtained by adding 5 μl of 1% TritonX100 to a well in the absence of the antibody was used.

[2] = tested on: hEva1-mouse Fc; assay: Surface plasmon resonance kinetics analysis (BiaCore T200, single-cycle); type: binding, human; conditions: SPR, antibody captured 5 nM, analyte hEva1-mouse Fc 1-250 nM, HBS-EP+ pH 7.4
Description: The dissociation constants and association constants of the humanized antibodies and the like were analyzed by using surface plasmon resonance (SPR, product name: BiaCore T200 (manufactured by GE healthcare)).
Specifically, first, human IgG capture antibodies were immobilized on a CM5 chip by an amine coupling method. This immobilization was conducted in both reference cells and active cells. Then, the kinetics analysis on the anti-Eval antibody and hEva1 was conducted by a single-cycle method using the following measurement conditions.
• Sample compartment temperature: 10° C. • Running buffer: HBS-EP+buffer, pH 7.4 • Capturing molecule: Human IgG antibody, reference & active cells • Ligand: Various antibodies 5 nM, active cells only • Analyte: hEva1-mouse Fc1, 5, 25, 125, 250 nM, reference & active cells • Regeneration buffer: 3M MgCl2, reference & active cells • 3 cycles of Blanks (Analyte zero concentration)

hEva1-mouse Fc, sequence (O60487 27-154 limits assumed): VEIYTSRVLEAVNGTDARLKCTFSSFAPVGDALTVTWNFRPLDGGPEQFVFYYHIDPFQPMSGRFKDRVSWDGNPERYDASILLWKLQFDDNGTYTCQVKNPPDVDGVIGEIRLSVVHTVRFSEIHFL

B1: H2-L2: humanized B2E5-48 IgG1, VH H2 (SEQ ID NO: 13), VL L2 (SEQ ID NO: 7) (antibody, V domains shown)
VH: QVQLVQSGAEVKKPGASVKVSCKASGYTFTNYWMHWVRQAPGQGLEWMGEINPTNGGTDYNEKFQGRVTMTVDKSTSTAYMELSSLRSEDTAVYYCTIYTTALDYWGQGTLVTVSS
VL: EIVLTQSPATLSLSPGERATLSCRASSSVGYMYWYQQKPGQAPRPLIYVTSNRATGIPARFSGSGSGTDYTLTISSLEPEDFAVYYCQQWSSNPPTFGQGTKLEIK
modifications: Variable Region of Heavy Chain 2 (Humanized B2E5-48); Variable Region of Light Chain 2 (Humanized B2E5-48)
cytotoxic activity against hGIC [1]: no cytotoxic activity
ka [2]: 19720 M⁻¹ s⁻¹
kd [2]: 0.009201 s⁻¹

Source: patent publication US20250186602A1, “HUMANIZED ANTIBODY THAT BONDS TO EVA1 PROTEIN OR FUNCTIONAL FRAGMENT THEREOF, ANTIBODY-DRUG CONJUGATE AND CHIMERIC ANTIGEN RECEPTOR” (CURED INC., priority 2022, published 2025)
